Data: the DeepSol protein solubility set

assay: soluble on expression in E. coli; label from the status in PepcDB or PDB records

With “GPGSMLASSSLVSVKRTLRIKVGTSTSERLRAAELDEPTTSSARPPPSAMDLSYITGKMPDTLPAYQTERAVWSATTFRSAWNKLHKAYASFLETDPERAAELRAKDWQGLALYNSYAETLHLMSLLPATLRTAITQHSSFDYTEVEELFVHLGQDVEVRGSGGWVIQLPPPTTADLQYLVKHIGRFGADGRGCVANTAHRASVWRGRHGEALGVTLRVGRYVPGAARALLPLAQRGSLLILSKAGMGKTTLLRDLAAALAQEPGTPRVTVVDTSNEIGGDGPIPLPYLGRCRRIQVAQRQDQGRVMMEVIQNHTPEYLIVDEIATEEEAEAAWSISQRGVHLIGTCHGEHLEGLLQNRALNLLVGGAAQAFLSNEERRLRNKMKKTVLERPYSSPFSFVVELHARNLGHLYVDVNKAVDLVLDEQPAQLNGAVGAAVELSALLPSRVEKLLRLHDERKRKLKYVAGTGTNDAEVGEEDDETATFSSAARGTVDEDGYTLLADDGGDPESKRSIAPSTYAAPNHASGRRPHWQAEKQRRHRKTDDELYGELKGSF” as the sequence, how does the “soluble on expression in E. coli” value read?
The value was “not soluble”.

With “MGSDKIHHHHHHMLNMNFDEQVFINTQEQPWVASPKAGVWRKPLAREDAERGHATSLVKFDPGASFTEHDHPLGEEILVLSGTFSDHTGDYHAGSYFRNPEGFRHAPFSKDGCILLVKLHQFQSGDNEHVVIDTANKSWSPGMGNLMVMPLHSFEGESTALVKWPKDERFQPHKHFGGEEIFVISGEFIDEHGRYPEGSWIRSPHLSEHFPYVEQETIILVKVGHL” as the sequence, how does the “soluble on expression in E. coli” value read?
The value was “not soluble”.

For “MKIAIIGATGHAGSAIFKEALKRGHEVTGYVRHPDKSVGILPPDADLIQQDAFTLTREQLTGYDAVIDAFATTVEQAYLHIDLADHLIHELRNTDKPRVIFILGAGSLKNGDQTLYDTLKKDPHAAAFINTPLNQFRELQLLRWTDNVNWLGISPSANFQPGPATAYVRGKDELLKDDSGKSVLNSDTLAVALLDELENPTIKQARFTARNALEHHHHHH”, which “soluble on expression in E. coli” value is on record?
Its value is “soluble”.

For “FNKKEVLDLTSPKNSIRSRNKLRRTLRNIQERIEDELNHEREALIQDFDYRLAVTYDQMLKDSNIPFSVKDVMAFIEKHTGVRFG”, which “soluble on expression in E. coli” value is on record?
Its value is “soluble”.

Which “soluble on expression in E. coli” value does the source give for “MKKVSSQILHQLRSQRGQSGMWCTNLTHSSTTHHQHPRQTSSHLLQRLESAPCLLKLSTTLLCLEIQQSMSLHPKEAILTTPDAVHREKMLTRSRKGDQTHEDQTDGTRKARNNIGPPNLFWITAKFQEQSTKMPNCWCLQLVNCAQSSILIGLWML” here?
The value was “not soluble”.

With “RKMFRALMPALEELTFDPSSAHPSLVVSSSGRRVECSEQKAPPAGEDPRQFDKAVAVVAHQQLSEGEHYWEVDVGDKPRWALGVIAAEAPRRGRLHAVPSQGLWLLGLREGKILEAHVEAKEPRALRSPERRPTRIGLYLSFGDGVLSFYDASDADALVPLFAFHERLPRPVYPFFDVCWHDKGKNAQPLLLV” as the sequence, how does the “soluble on expression in E. coli” value read?
Its value is “soluble”.

With “MGRKKKKVDKPWCWYCNREFDDEKILIQHQKAKHFKCHICHKKLFSGPGLSIHCMQVHKETIDKIPAAVHGRDNIHVEIYGMQGIPSGAYRGAADEEPDEKRSRMDNGPPMPTPMPFPQHFPFPGMPPMPSGPPPPSMAYGMPPMPSGMMPPRGMPGAYPPPRGYPPAPAPGVYMPPPGMPGAYPPPRMPIGHGPPGGPPMPGPPQRSRFDQPDGGDRWGPPMRGVPRTPPYENEHEHQDYQAPDDYNQGGYDDRFREGDRGGPPGGSRFDQVKAELKEEIVEPNNGPPTTSSGAAAASAAAVVASKLGSRTRIVYPDDHSLSLEERRVKMLFEKRSNPYH” as the sequence, how does the “soluble on expression in E. coli” value read?
Its value is “soluble”.

With “MHKNLFHWLMERGYQVLVEKEVAITLELPFEHLATLEEIGHRAQLAIVIGGDGNMLGRARVLAKYDIPLIGINRGNLGFLTDIDPKNAYSQLEACLERGEFFVEERFLLEAKIERASEIVSTSNAVNEAVIHPAKIAHMIDFHVYINDKFAFSQRSDGLIVSTPTGSTAYSLSAGGPILTPNLNAIALVPMFPHTLTSRPLVVDGDSKISIRFAEHNTSQLEVGCDSQITLPFTPDDVVHIQKSEHKLRLLHLKIIIITMC” as the sequence, how does the “soluble on expression in E. coli” value read?
Its value is “soluble”.

For “MTQVIIDGDACPVTNSIIELTKGTGIFVTVVRSFSHFSTVIQPEHVNIIYVDDGPDAVDYRIVKLVHSDDLVVTQDYGLASLLLNKAKIVMHHKGFIYNQENINTLLEQRHASAQFRKSGGRTKGPAAFTEEDVSKFESIFSNLIHKYFLETEDLEHHHHHH”, which “soluble on expression in E. coli” value is on record?
Its value is “soluble”.

Which “soluble on expression in E. coli” value does the source give for “HSGEDLPMVAPGNVRVNVVNSTLAEVHWDPVPLKSIRGHLQGYRIYYWKTQSSSKRNRRHIEKKILTFQGSKTHGMLPGLEPFSHYTLNVRVVNGKGEGPASPDRVFNTPEG” here?
Its value is “soluble”.

With “GPGSMRSQRVLQRTRKQKMESSSCASAPIAVDAQDVVVPPAVAQARAWLSLYGACCTEEEVEMHPVVLSRVLQAVELVQSRSCLSSGSEGPLAATTTKHTCRSGEGDAEAATARSSPTALHEGDDSKRGKGEAGLSIDFGGLWMLLSEWIAILRSLVATVPLHTLSLRDTALGDAGLRCLCRQVATTSVKPASLEVASRCEACSFHLLGLSTLAAPPSCPPTIPGSWAASTLRLLDLSGAALTDGGPLASLLASCPQLHSLNLSDNSLGSRDAGLALLCAALQVHPSLEVLSLRRNCISGSRNGPAIAALAELIVARSVEGSRTLSKACGYGSALCRQQTPAAAAVAAQPLRRLDLSHNLLGTYFLLSDATMTHRAEAGRPSAAREYDMASSSGRHVGVHEAVASFPLVAALYLNNTLIELNLHNNGLPGALLEYVEAKLHVNQRTTGGGADFSKTVSTEIIASTTVRQVLIHRLRCTLDHILAGTANASGMVGATHTERGDAPPTEVPAESQSSVLSAAERRWTTGEVSELVQRLVYNVASDLSLF” as the sequence, how does the “soluble on expression in E. coli” value read?
The value was “not soluble”.

With “MSLTIAVYGLGKMGLPLAAVFADHGANVIGVDINERVVEMVNKGENHVKEEPGLDELVRRNVEEGRLRATTDGVWAAKSADVMIILVPTLADDRGNLKLEPVYDVANKIAKGLEKGDIVITEATMPPGTTESLIPILEKSGLKLGEFGLAHAPERTMTGTAIRDITGQYPKIVGASDERTLEAVIGLYETINRKGVIPMSSIKAAEAVKVFEGVYRDVNIALANELALWCEEHGLDALEIFNAANTQPYCHLHMPGAGVGGHCIPVYPWFVISLAKKTNPRLIKTAREINDSMPHHIVELTIRGLNEVGKPLKGSNVLVLGLTFRGGVREFTKSPAIDVIKELKEWGARVFTYDPLCNEEDAKRFGAEWKEDFKDVDAIVIVTDHKEFKDLNLEEIAKQVRNRVIVDGRNILDPRKAEKLGFVYLRVGRVEGHHHHHH” as the sequence, how does the “soluble on expression in E. coli” value read?
The value was “soluble”.

With “MEIKMAKDYGFCFGVKRAIQIAEKNQNSLIFGSLIHNAKEINRLEKNFNVKIEEDPKKIPKNKSVIIRTHGIPKQDLEYLKNKGVKITDATCPYVIKPQQIVESMSKEGYQIVLFGDINHPEVKGVISYATNQALVVNSLEELQEKKLQRKVALVSQTTKQTPKLLQIASYLVERCTEVRIFNTICNATSYNQKAALDLSKEVDIMIVVGGKTSSNTKQLLSIAKQHCKDSYLVEDENELELAWFKDKKLCGITAGASTPDWIIENVKQKISTILEHHHHHH” as the sequence, how does the “soluble on expression in E. coli” value read?
Its value is “not soluble”.

With “MGSDKIHHHHHHMTHPSVDQENLPQTASLPENIIEAAITWSIRLDYNDPTPETRQSFDQWLHADPLHRLAWQRVDSLNNLRNDCRSLPSRLAFDTLQEVDSRRQSRKLSRRNAMKLLSLAGITIATGWTVREHTPWQRLLADASTVTGEQRVLHLTDGTVVVLNTDSAVSFDLTEAQRLIVLQRGEMHITTGPDSEVSARIGRKRPFRVRTPFGELQALGTRFVVRLDEQHARVSVQEGAVELHPSAGGSSAIVQAGESRRLTGSSILPEADRYFEEDGWVSGVIAGKNIRLADLVAELSRYRPGYIVCDERVADLPISGIFHVKDTDKALQFLAQTQPVSVMYRTRFWVIVGPKSLYR” as the sequence, how does the “soluble on expression in E. coli” value read?
Its value is “not soluble”.

With “MSLKIAQATARVEAFALVRPYTIALRHVGTVENVIVQLQTASGLIGLGAASAAADVTGESDQACREALLGGAIGWLVGEDIRELPKLCRRLGERMAGRPAARAAVDIALHDLLAQHLGVPLVAMLGRVHTGLPTSITIGIKPLDETLAEAREYLGRGFRILKVKTGLDLEGDIERLARLREQVGDAVHLRVDPNQGYSIAEVEQFVRRTAHLFLEFLEQPIPAGDIAALRALPPDIRLRIAADESLLDERDALKLLTPSPACGIFNIKLMKCGGIRPALAIAGLAEIAGIELMWGCMDESIVSITAALHAALACPATRYLDLDGSLDLARDVVTGGFVLKDGYLSTREAPGLGVQLLSEGHHHHHH” as the sequence, how does the “soluble on expression in E. coli” value read?
The value was “not soluble”.

Which “soluble on expression in E. coli” value does the source give for “MGSDKIHHHHHHMIGHVPVGSSAPVVVQSMTNTDTADAAATVRQVYELWRAGSEIVRITVNSPEAAAQVGAIRRQLDDLGCNVPLVGDFHFNGHRLLAQYPDCAEALAKYRINPGNVGKGSKRDEQFSAMIKAAIDYNKPVRIGVNWGSLDQAKMARMMDENSKRAAPLAADALMREMLIQSALENAAAAEELGLPSDRIIISCKVSAVQDLIKVYRDLGSRCDYPLHLGLTEAGMGSKGIVASTAALSVLLQDGIGDTIRVSLTPEPGESRTKEVVVAQEILQTMGIRSFTPLVTACPGCGRTTSTFFQELAQKIQHYLRDQMPVWRSQYPGVENMSVAVMGCVVNGPGESKLANIGISLPGTGEVPVAPVYVDGEKTVTLKGERIADDFKVIVEEYVRVNYAEGGRLRQQGTGTGLKTIPLKAI” here?
Its value is “not soluble”.

Which “soluble on expression in E. coli” value does the source give for “MGSDKIHHHHHHMRMDHQLAERWIAPYSHVLDLGCGNGELLAHLQQNRGVTGYGLEIDEDKINEAIANGLSIVEQDLNDGLARFADNSFDTVVMARALQAVKSPDVLLLDMLRVAREAVITFPNFAHWQNRIHLGLKGIMPVSEALPYEWYNTPNIHLCTFKDFEKLCAQHDIHIINRFAVSDSEKGHSSLMTALIRRAPNLLADVAIYRVSKQKPE” here?
Its value is “not soluble”.

Which “soluble on expression in E. coli” value does the source give for “MAHHHHHHMCSVPISCSSTHTHTPHSLIVMSAPKKVALVTGANRGIGFATARRLGELGFKVLLGARDAKRGEEAVDTLRNDKLDVDLLLMTPTEHTSVEAAVQKVEADYKRLDVLINNAALMDFDNKVFPLNIQRMRDEFEINFFATVDITNSFLPLMLRSSEAPRLVFVSTPLGTHETVDRPQNKYAHPNLTAYKCTKSAVNMYAHNLAKYLENYAEEAGGSAASAKVNCCYPGYVQTDMCFNSTEAHFTPYEGAETSVWLATLPADGPTGGFYHRAQKLPW” here?
Its value is “soluble”.

Which “soluble on expression in E. coli” value does the source give for “MFYLGIDAGGTKTSFMLINHLGEVLSTYTSGTCHIHQVGFDGFRKGIQEGIDKICSEINICRDDLSYSFLGLPAYGENESEKLKMNSIIAEILGENKFSCGNDVEVALAGSLAGQPGICIILGTGAIASGITNDLKTARTSGWGYICGDEGSGYWIAKKGVEIFGKQSDHRLERTALYDIFKNELKLENDFDLIFLIKDKYKQDRTKVANLAMLVYKAALKGDKYALDIYRQAAKECLLMVNGLTNQLEFTGVLNISYSGSVFNSKEFILDPLRNYLQDNYTAFNLTAPILPPIKGAALNALKLHKGEIPEGVVHNLAKEPKEILVLEHHHHHH” here?
The value was “not soluble”.

Which “soluble on expression in E. coli” value does the source give for “VAKRLDLTDVNIYYGSFHAVADVSLAILPRSVTAFIGPSGCGKTTVLRTLNRMHEVIPGARVEGAVLLDDQDIYAPGIDPVGVRRAIGMVFQRPNPFPAMSIRNNVVAGLKLQGVRNRKVLDDTAESSLRGANLWDEVKDRLDKPGGGLSGGQQQRLCIARAIAVQPDVLLMDEPCSSLDPISTMAIEDLISELKQQYTIVIVTHNMQQAARVSDQTAFFNLEAVGKPGRLVEIASTEKIFSNPNQKATEDYISGRFG” here?
The value was “not soluble”.

With “LKVLKRFDIETDYGSAIIADTITGRIEYTVATGGCIFPEVSRTIQTLENMGASVFIASGDSRKFIERLGNIVGVQNKCLMPEAHHKLKRDLILNLKQDGYTVIMVGDASNDILAMEESDLSVITLQNGNVSKKALETAQIKIENISEI” as the sequence, how does the “soluble on expression in E. coli” value read?
The value was “not soluble”.
